Patent US20260125455A1 (CLEVELAND CLINIC FOUNDATION, published 2026)
Each block holds one binder with its values, some of them ahead of it.

How the values were obtained:
[1] = molecular target: T1, human complement protein C6 (human, UniProt P13671 22-934); experiment: SPR (Biacore 8K)
T1 construct: also called human C6; C6 antigen
Description: (§1) The kinetics of C6 binding was compared for the purified chimeric and lead humanized C601 using surface plasmon resonance (SPR, Biacore 8K). IgG were captured on a protein G sensor chip and binding of C6 measured using a three-fold concentration series of C6 from 0.03 nM-25 nM (FIG. 5). In a second experiment, a two-fold concentration series from 0.31 nM-20 nM C6 was used (FIG. 6). For all antibodies, binding of C6 occurred in a concentration-dependent manner and data could be fitted using a 1:1 model to calculate the association rate (kₒₙ), dissociation rates (kd) and affinity constant (KD). The kinetic data are shown in Table 5, which indicates only small differences between the parameters determined from the two independent experiments.
(§2) Binding ELISAs used Nunc Maxisorp 384-well plates, wells coated with C6, C5b,6 complex or C5 (Complement Technology Inc, TX) and goat anti-human IgG (Fab specific) peroxidase secondary antibodies (Sigma-Aldrich, A0293) for detection. For the thermal stability assay, IgG supernatants were diluted to their EC₈₀ concentration, incubated at different temperatures for 10 min and C6 binding measured by ELISA with the binding signal plotted against temperature. Kinetics of C6 binding were measured by capturing antibodies from supernatant samples using Protein G biosensors and performing a 20 min association step with 2.5 nM C6 and a 20 min dissociation step using the Octet RED96. Precise kinetic measurements were obtained by surface plasmon resonance (Biacore 8K, Cytiva). The IgG were captured on a protein G sensor chip. Binding of C6 measured using a three-fold concentration series of C6 from 0.03 nM-25 nM and data were fitted using a 1:1 model in two independent experiments.

[2] = molecular target: T1, human complement protein C6; experiment: SPR (Biacore 8K), IgG on protein G chip, C6 0.03-25 nM 3-fold series, 1:1 fit
Description: as §1, §2

[3] = molecular target: T1, human complement protein C6; experiment: C6-binding ELISA, A650 nm; sample 'PBS' (28 days at 37 C)
Description: (§3) For the serum stability assessment, samples of the purified candidate antibodies are normally incubated in mouse, human and cynomolgus serum at 37 C for 28 days and then tested in an antigen-binding ELISA. Since the anti-C6 antibodies are expected to bind to both human and cynomolgus C6 but not mouse C6, we anticipated that incubating in human or cynomolgus sera would reduce ELISA binding due to occupation of the antibody binding sites by C6 protein from the sera. Therefore, the chimeric and humanized antibodies were tested with human and mouse sera and with human sera from which the C6 protein has been depleted. The C6-binding ELISA was then used to compare the binding abilities of the C601 antibodies that had been incubated in the 3 different sera to antibody samples that were incubated in PBS at 37 C or kept at 4 C (non-incubated).
(§4) The Uncle instrument (Unchained Labs) was used to monitor unfolding via intrinsic fluorescence and aggregation by static light scattering across a temperature gradient to obtain melting temperatures (Tₘ). […] Isoelectric points were determined by capillary isoelectric focusing using a PA800+ (Beckman Coulter). […]

[4] = molecular target: T1, human complement protein C6; experiment: C6-binding ELISA, A650 nm; sample 'mouse serum' (28 days at 37 C)
Description: as §3, with “The C6-binding ELISA was then used to compare the binding abilities of the C601 antibodies that had been incubated in the 3 different sera to antibody samples that were incubated in PBS at 37 C or kept at 4 C (non-incubated).” left out
as §2, with “Precise kinetic measurements were obtained by surface plasmon resonance (Biacore 8K, Cytiva). The IgG were captured on a protein G sensor chip. Binding of C6 measured using a three-fold concentration series of C6 from 0.03 nM-25 nM and data were fitted using a 1:1 model in two independent experiments.” left out

[5] = molecular target: T1, human complement protein C6; experiment: C6-binding ELISA, A650 nm; sample 'C6-depleted human serum' (28 days at 37 C)
Description: as §3, with “The C6-binding ELISA was then used to compare the binding abilities of the C601 antibodies that had been incubated in the 3 different sera to antibody samples that were incubated in PBS at 37 C or kept at 4 C (non-incubated).” left out
as §2, with “Precise kinetic measurements were obtained by surface plasmon resonance (Biacore 8K, Cytiva). The IgG were captured on a protein G sensor chip. Binding of C6 measured using a three-fold concentration series of C6 from 0.03 nM-25 nM and data were fitted using a 1:1 model in two independent experiments.” left out

[6] = molecular target: T1, human complement protein C6; experiment: ELISA, C6-coated wells, large-scale purified antibody
[7] = molecular target: T1, human complement protein C6; experiment: SPR (Biacore 8K), IgG on protein G chip, C6 0.31-20 nM 2-fold series, 1:1 fit
Description: as §1

[8] = molecular target: T1, human complement protein C6; experiment: C6-binding ELISA, A650 nm; sample 'PBS, non-incubated' (kept at 4 C)
Description: (§5) The C6-binding ELISA was then used to compare the binding abilities of the C601 antibodies that had been incubated in the 3 different sera to antibody samples that were incubated in PBS at 37 C or kept at 4 C (non-incubated).
as §2, with “Precise kinetic measurements were obtained by surface plasmon resonance (Biacore 8K, Cytiva). The IgG were captured on a protein G sensor chip.” left out
(§6) The Uncle instrument (Unchained Labs) was used to monitor unfolding via intrinsic fluorescence and aggregation by static light scattering across a temperature gradient to obtain melting temperatures (Tₘ). […] Isoelectric points were determined by capillary isoelectric focusing using a PA800+ (Beckman Coulter).

[9] = molecular target: human complement protein C5 (human, UniProt P01031 19-673; P01031 678-1676); experiment: ELISA, C5-coated wells
human complement protein C5, sequence (P01031 19-673 limits assumed, chain 1 of 2): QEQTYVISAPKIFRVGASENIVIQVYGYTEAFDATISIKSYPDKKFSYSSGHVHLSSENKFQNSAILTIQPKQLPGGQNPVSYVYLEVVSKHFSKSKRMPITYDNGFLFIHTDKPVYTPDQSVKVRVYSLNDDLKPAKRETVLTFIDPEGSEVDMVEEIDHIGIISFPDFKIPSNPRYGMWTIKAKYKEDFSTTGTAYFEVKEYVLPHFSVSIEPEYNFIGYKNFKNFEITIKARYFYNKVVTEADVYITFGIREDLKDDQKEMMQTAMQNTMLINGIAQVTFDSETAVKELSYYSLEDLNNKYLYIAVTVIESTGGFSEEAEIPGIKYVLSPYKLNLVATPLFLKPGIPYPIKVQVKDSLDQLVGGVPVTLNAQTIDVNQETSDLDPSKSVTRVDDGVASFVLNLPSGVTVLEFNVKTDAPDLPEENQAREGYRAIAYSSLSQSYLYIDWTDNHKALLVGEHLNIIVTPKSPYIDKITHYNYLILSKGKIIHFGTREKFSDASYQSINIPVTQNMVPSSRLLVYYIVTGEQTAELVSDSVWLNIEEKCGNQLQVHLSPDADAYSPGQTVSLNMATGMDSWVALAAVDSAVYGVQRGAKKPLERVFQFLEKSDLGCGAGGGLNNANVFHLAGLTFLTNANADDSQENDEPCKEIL
human complement protein C5, sequence (P01031 678-1676 limits assumed, chain 2 of 2): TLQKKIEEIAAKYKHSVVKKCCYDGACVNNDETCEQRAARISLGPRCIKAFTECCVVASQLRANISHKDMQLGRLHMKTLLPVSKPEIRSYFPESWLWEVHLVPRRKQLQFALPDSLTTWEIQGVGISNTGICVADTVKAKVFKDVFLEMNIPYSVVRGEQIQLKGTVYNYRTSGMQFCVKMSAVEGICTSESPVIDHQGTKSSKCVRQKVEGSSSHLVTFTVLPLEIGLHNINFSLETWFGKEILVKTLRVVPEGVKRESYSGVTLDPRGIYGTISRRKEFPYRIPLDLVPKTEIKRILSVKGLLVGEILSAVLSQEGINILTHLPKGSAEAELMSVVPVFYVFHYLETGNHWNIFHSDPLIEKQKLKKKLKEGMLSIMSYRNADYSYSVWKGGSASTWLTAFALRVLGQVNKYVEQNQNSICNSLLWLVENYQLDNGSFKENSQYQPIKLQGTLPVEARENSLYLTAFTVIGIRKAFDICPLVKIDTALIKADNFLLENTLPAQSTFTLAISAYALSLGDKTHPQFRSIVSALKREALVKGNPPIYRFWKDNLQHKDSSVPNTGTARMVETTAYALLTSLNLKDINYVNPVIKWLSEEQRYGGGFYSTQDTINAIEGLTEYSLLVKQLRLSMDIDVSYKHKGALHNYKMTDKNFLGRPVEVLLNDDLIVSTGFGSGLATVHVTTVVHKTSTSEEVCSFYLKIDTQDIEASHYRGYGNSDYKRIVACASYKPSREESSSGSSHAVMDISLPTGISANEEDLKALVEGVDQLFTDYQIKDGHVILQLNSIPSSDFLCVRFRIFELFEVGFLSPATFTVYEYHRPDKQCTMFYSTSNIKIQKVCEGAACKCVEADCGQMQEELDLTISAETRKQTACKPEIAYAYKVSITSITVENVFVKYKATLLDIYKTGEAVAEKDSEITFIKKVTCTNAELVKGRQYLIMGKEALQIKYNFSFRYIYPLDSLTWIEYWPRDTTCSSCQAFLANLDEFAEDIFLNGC
Description: The 20 purified antibodies were tested by ELISA for their abilities to bind human complement proteins C5, C5b6 and C6. The antibodies were divided into two sets for this analysis. MoC601 HuG4K and HuG4K isotype controls were included alongside each set, as was C601HFKC4 HuG4K (aka 3713) expression supernatant from the original transfection as an additional positive control. In addition, three humanized antibodies (C601HFKC4 HuG4K, C601HPKI HuG4K and C601HPKC4 HuG4K) were included within both sets to allow better comparison between the plates. The antibodies all show specificity for C6 with no detectable binding to C5. All humanized antibodies bind to C6 and to C6 as part of the C5b6 complex. The lower plateaus of the C5b6 complex binding curves are explained by less C6 protein being available for binding when wells are coated with C5b6 complex as opposed to C6 alone. […] The EC₅₀ values are included in the figure but slightly different plateau levels observed for the antibodies are influencing the apparent EC₅₀ values. However, it was noted that the EC₅₀ values tended to be lower on the plates for the second set of antibodies. For this reason, a subset of the 20 antibodies was tested in a further ELISA for binding to C6 and C5b6 complex.
as §2

[10] = molecular target: T1, human complement protein C6; experiment: C6-binding ELISA, A650 nm; sample 'human serun' (human serum, 28 days at 37 C)
Description: as §3, with “The C6-binding ELISA was then used to compare the binding abilities of the C601 antibodies that had been incubated in the 3 different sera to antibody samples that were incubated in PBS at 37 C or kept at 4 C (non-incubated).” left out
as §2, with “Precise kinetic measurements were obtained by surface plasmon resonance (Biacore 8K, Cytiva). The IgG were captured on a protein G sensor chip. Binding of C6 measured using a three-fold concentration series of C6 from 0.03 nM-25 nM and data were fitted using a 1:1 model in two independent experiments.” left out

[11] = molecular target: T1, human complement protein C6; experiment: C6-binding ELISA, A650 nm; sample 'PBS' (28 days at 37 C) [cont.) D]
Description: as §3, with “The C6-binding ELISA was then used to compare the binding abilities of the C601 antibodies that had been incubated in the 3 different sera to antibody samples that were incubated in PBS at 37 C or kept at 4 C (non-incubated).” left out
as §2, with “Precise kinetic measurements were obtained by surface plasmon resonance (Biacore 8K, Cytiva). The IgG were captured on a protein G sensor chip. Binding of C6 measured using a three-fold concentration series of C6 from 0.03 nM-25 nM and data were fitted using a 1:1 model in two independent experiments.” left out

[12] = molecular target: T1, human complement protein C6; experiment: C6-binding ELISA, A650 nm; sample 'C6-depleted human serum' (28 days at 37 C) [cont.) D]
Description: as §3, §4

[13] = molecular target: T1, human complement protein C6; experiment: C6-binding ELISA, A650 nm; sample 'human serun' (human serum, 28 days at 37 C) [cont.) D]
Description: as §3, §4

[14] = molecular target: T1, human complement protein C6; experiment: C6-binding ELISA, A650 nm; sample 'mouse serum' (28 days at 37 C) [cont.) D]
Description: as §3, §4

[15] = molecular target: T1, human complement protein C6; experiment: C6-binding ELISA, A650 nm; sample 'PBS, non-incubated' (kept at 4 C) [cont.) D]
Description: as §5
as §2, with “Precise kinetic measurements were obtained by surface plasmon resonance (Biacore 8K, Cytiva). The IgG were captured on a protein G sensor chip.” left out
as §6

[16] = molecular target: T1, human complement protein C6; experiment: ELISA, purified protein, anti-human IgG (Fab-specific) detection
Description: The binding of the purified chimeric molecules, MoC601 HuG4K and MoC601 HuG1KFab, was also confirmed by ELISA, where the anti-human IgG (Fab-specific) secondary reagent was used. The control mouse antibody bound as previously (EC₅₀ 0.11 nM). The EC₅₀ for purified MoC601 HuG4K (0.27 nM) was similar to that obtained for the MoC601 HuG4K supernatant sample above. […] The EC₅₀ value for the Fab molecule (0.48 nM) was higher than for the antibody, which would be expected since the Fab is unable to bind bivalently to the antigen on the well. A C6-binding assay was also set up on the Octet RED384 instrument. […] However, MoC601 MoG1K could be stably loaded onto anti-mouse Fc (AMC) biosensors. Concentrations of the mouse and chimeric antibodies were adjusted to give similar levels of loading on to the AMC and […]

T1 sequence (P13671 22-934 limits assumed): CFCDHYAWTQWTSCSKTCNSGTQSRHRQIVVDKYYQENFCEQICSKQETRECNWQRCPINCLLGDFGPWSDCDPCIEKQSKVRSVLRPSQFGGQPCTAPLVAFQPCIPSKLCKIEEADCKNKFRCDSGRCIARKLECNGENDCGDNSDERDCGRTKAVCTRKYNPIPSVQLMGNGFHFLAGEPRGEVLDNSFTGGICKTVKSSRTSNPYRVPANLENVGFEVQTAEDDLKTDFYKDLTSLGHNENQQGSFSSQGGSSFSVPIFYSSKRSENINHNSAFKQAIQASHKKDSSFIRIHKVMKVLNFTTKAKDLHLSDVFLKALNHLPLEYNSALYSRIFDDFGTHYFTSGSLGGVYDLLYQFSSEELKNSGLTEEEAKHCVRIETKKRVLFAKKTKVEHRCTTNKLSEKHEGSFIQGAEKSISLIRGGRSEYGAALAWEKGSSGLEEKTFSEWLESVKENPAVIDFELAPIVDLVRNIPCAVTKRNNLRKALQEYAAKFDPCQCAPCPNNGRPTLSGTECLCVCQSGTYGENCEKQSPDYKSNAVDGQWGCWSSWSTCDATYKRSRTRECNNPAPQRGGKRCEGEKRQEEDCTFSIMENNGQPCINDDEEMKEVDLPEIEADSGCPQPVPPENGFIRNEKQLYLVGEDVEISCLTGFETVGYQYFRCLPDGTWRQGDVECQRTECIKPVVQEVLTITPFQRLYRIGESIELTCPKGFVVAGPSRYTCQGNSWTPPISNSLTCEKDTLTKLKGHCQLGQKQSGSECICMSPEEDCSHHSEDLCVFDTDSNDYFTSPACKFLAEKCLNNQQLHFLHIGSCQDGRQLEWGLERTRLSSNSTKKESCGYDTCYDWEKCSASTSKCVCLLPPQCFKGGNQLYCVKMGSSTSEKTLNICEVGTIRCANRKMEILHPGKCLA

- Kd [1]: 0.348 nM
- Kd [2]: 0.348 nM
- koff [2]: 0.000308 s⁻¹
- kon [2]: 890000 M⁻¹ s⁻¹
- EC50 [3]: 0.22 nM
- EC50 [4]: 0.18 nM
- EC50 [5]: 0.19 nM
- EC50 [6]: 0.22 nM
- Kd [7]: 0.279 nM
- koff [7]: 0.000317 s⁻¹
- kon [7]: 1.14e+06 M⁻¹ s⁻¹
- EC50 [8]: 0.2 nM
- binding result [9]: no binding
- EC50 [10]: 0.2 nM
B1: C601HFKI HuG4K (antibody, human IgG4 S228P, kappa)
heavy: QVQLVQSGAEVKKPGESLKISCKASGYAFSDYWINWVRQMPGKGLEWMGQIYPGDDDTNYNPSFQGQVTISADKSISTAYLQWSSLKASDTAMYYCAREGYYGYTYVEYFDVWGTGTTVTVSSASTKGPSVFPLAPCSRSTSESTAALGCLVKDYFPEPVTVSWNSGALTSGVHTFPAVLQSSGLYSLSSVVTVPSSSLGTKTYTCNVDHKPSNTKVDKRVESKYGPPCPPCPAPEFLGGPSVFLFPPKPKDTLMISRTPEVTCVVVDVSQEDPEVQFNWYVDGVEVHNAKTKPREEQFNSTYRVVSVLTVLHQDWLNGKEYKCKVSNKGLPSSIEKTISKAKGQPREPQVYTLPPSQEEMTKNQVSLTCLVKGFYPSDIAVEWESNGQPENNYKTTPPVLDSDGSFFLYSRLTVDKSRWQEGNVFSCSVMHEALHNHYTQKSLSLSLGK
light: EIVLTQSPATLSLSPGERATLSCRASSSVSYLHWYQQKPGQSPRLWIYDTSKRATGIPARFSGSGSGTDYTLTISSLEPEDFAVYYCQQWTSNPLTFGQGTKLEIKRTVAAPSVFIFPPSDEQLKSGTASVVCLLNNFYPREAKVQWKVDNALQSGNSQESVTEQDSKDSTYSLSSTLTLSKADYEKHKVYACEVTHQGLSSPVTKSFNRGEC

- Kd [1]: 0.433 nM
- Kd [2]: 0.433 nM
- koff [2]: 0.000445 s⁻¹
- kon [2]: 1.03e+06 M⁻¹ s⁻¹
- EC50 [11]: 0.17 nM
- EC50 [6]: 0.17 nM
- Kd [7]: 0.295 nM
- koff [7]: 0.000361 s⁻¹
- kon [7]: 1.23e+06 M⁻¹ s⁻¹
- EC50 [12]: 0.19 nM
- EC50 [13]: 0.19 nM
- binding result [9]: no binding
- EC50 [14]: 0.15 nM
- EC50 [15]: 0.14 nM
B2: C601HPKI HuG4K (antibody, human IgG4 S228P, kappa)
heavy: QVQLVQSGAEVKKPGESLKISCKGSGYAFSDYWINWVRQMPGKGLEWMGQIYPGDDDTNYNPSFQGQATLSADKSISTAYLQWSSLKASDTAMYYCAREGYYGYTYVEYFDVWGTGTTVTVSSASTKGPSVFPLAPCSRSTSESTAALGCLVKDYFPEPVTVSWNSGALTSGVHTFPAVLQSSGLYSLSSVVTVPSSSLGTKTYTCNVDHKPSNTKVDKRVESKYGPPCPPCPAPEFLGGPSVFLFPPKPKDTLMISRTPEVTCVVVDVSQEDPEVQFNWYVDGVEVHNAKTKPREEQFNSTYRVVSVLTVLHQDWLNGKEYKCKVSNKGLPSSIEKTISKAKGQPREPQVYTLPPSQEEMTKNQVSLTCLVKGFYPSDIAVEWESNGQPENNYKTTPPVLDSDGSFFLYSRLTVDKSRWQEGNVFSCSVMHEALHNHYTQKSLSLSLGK
light: B1 light

- EC50 [16]: 0.48 nM
B3: MoC601 HuG1KFab (Fab, V domains shown)
VH: QVQLQQSGAELVKPGASVKISCKASGYAFSDYWMNWVKQRPGKGLEWIGQIYPGDDDTNYNGKFKGKATLTADKSSSTAYMQLSSLTSEDSAVYFCAREGYYGYTYVEYFDVWGTGTTVTVSS
VL: QIVLTQSPAIMSVSPGEKVTLTCSASSSVSYMHWYQQKSGTSPKRWIYDTSKLASGVPARFSGSGSGTSYSLTISSMEAEDAATYYCQQWTSNPLTFGAGTKLELRR
notes: also called chimeric Fab; Fab molecule
